Laboratory results from patent publication US20170042979A1.

Target: soluble form of cation-independent mannose-6-phosphate receptor (lacking the membrane anchor sequence)
Test: SPR (Biacore), soluble CIMPR immobilised on dextran chip, analyte flowed at 20 µL/min, RU after 3 min less control cell

fold higher concentration needed for the same change in RU, against unmodified α-galactosidase: 10 fold
Substance: α-galactosidase conjugated to 10 kDa 4-arm dendrimer (star) hydrazide PEG (Hz4PEG), prepared with 10% w/v PEG (from UniProt P06280 32-429) (enzyme)
